Data set [1] relates to DM1-MCC-NFP1 (DM1-loaded NFP1 nanofiber).
Data set [2] deals with Cy5.5-NFP1 nanofiber peptide construct, mPEG2000-KKKKKKKLDLKLDLKLDLK-Cy5.5.
Data set [3] relates to Cy5.5-NFP2 nanofiber peptide construct, mPEG2000 KLDLKLDLKLDLK-Cy5.5.
The test system of data set [4] is FITC-NFP1 nanofiber peptide construct, mPEG2000-KKKKKKKLDLKLDLKLDLK(FITC).
Data set [5] concerns DM1-MCC-NFP2 (DM1-loaded NFP2 nanofiber).
Data set [6] deals with FITC-NFP2 nanofiber peptide construct, mPEG2000-KLDLKLDLKLDLK(FITC).

With “Cathepsin B (CathB), purified from bovine spleen (EMD Millipore)”, the “drug metabolites after CathB digestion (HPLC, MALDI-TOF)” value in data set [1] is recorded as “After CathB digestion, Lys-MCC-DM1 ... was identified in DM1-MCC-NFP1”; in data set [5] it was “For DM1-MCC-NFP2, no drug metabolite was identified during CathB digestion due to its slow release property”. Further, the “fluorescence recovery after CathB activation” value in data set [2] is listed as “CathB digestion of Cy5.5-NFP1 led to the release of Cy5.5-peptide fragments, thus resulting in the recovery of the fluorescence signal”; in data set [3], “the fluorescence of Cy5.5-NFP2 was only slightly increased after exposure to CathB”. Moreover, the “HPLC of nanofibers after 24 h CathB digestion (enzyme cleavage)” value in data set [4] was “CathB digested FITC-NFP1 into multiple peptide fragments after 24 hours”; in data set [6], “only one fragment was identified when FITC-NFP2 was subjected to CathB digestion”.
